Source: article PMC4601640, “Stability of the Human Hsp90-p50^Cdc37 Chaperone Complex against Nucleotides and Hsp90 Inhibitors, and the Influence of Phosphorylation by Casein Kinase 2” (Molecules, 2015)

T1: GST-p50^Cdc37 (human, UniProt Q16543 1-378)
T1 construct: p50 Cdc37, human, full length, residues 1-378, in pGEX6P-1; also called GST-tagged p50^Cdc37; source: E. coli BL21 (DE3), purified (glutathione sepharose, size exclusion); not shown: GST, N-terminal, kept
T1 sequence (looked up): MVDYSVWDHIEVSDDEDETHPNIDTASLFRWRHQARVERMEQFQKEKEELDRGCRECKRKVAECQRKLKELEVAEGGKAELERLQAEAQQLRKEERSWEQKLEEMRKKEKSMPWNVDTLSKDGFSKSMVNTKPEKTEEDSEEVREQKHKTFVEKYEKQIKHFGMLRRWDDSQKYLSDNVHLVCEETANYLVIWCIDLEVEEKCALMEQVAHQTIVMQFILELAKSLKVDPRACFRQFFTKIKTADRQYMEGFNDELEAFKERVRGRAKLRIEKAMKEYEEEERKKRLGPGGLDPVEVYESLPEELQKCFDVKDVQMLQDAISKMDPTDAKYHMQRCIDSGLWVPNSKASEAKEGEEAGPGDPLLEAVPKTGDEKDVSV

B1: human Hsp90β (1-724 Δ220-275) (natural protein)
chain: not shown
notes: Hsp90β, human, residues before the deleted charged linker 220-275 of the construct 1-724; four glycine residues that replace the deleted section 220-275; Hsp90β, human, residues after the deleted charged linker 220-275 of the construct 1-724; Gene synthesised by GeneArt, codon optimised for E. coli; pET28a; also called ΔHsp90; ΔHsp90β
B2: human N-terminal Hsp90β (1-219) (domain or fragment)
chain: not shown
notes: Hsp90β, human, N-terminal domain, residues 1-219; Gene synthesised by GeneArt; pET28a; also called N-Hsp90; Hsp90β-N
B3: human Hsp90α (1-732 Δ226-283) (natural protein)
chain: not shown
notes: Hsp90α, human, residues before the deleted section 226-283 of the construct 1-732; four glycine residues that replace the deleted section 226-283; Hsp90α, human, residues after the deleted section 226-283 of the construct 1-732; Gene synthesised by GeneArt; pET28a; also called ΔHsp90α
B4: human full-length p50^Cdc37 (residues 1-378) (natural protein, UniProt Q16543 1-378, looked up)
chain: T1 sequence (looked up)
notes: p50 Cdc37, human, full length, residues 1-378; Eluted as a dimer in size-exclusion chromatography; source: tag cleaved with PreScission protease
B5: CK2-phosphorylated human full-length p50^Cdc37 (natural protein, UniProt Q16543 1-378, looked up)
chain: T1 sequence (looked up)
modifications: phosphoserine at 13 (shown by Western blot)
notes: p50 Cdc37, human, full length, residues 1-378, phosphorylated by CK2α; also called (p)p50^Cdc37; source: E. coli Tuner (DE3), purified, then phosphorylated in vitro with purified CK2α and ATP

Legend:
Conditions in all cases: both partners purified
[1] = molecular target: B4; assay: ITC; p50^Cdc37 (200 µM) titrated into Hsp90 (20 µM); 50 mM HEPES pH 7.5, 10 mM MgCl2, 30 °C
GST-p50^Cdc37 = molecular target: T1, GST-p50^Cdc37; assay: ELISA; GST-p50^Cdc37 (4 µM) immobilised on glutathione-coated plates; His6-Hsp90 (4 µM) pre-incubated with nucleotides and/or inhibitors in 5% DMSO, detected with anti-His6; 50 mM HEPES pH 7.5, 150 mM NaCl, 10 mM MgCl2, 0.05% Tween-20, 0.1% BSA; room temperature
human full-length Hsp90β [2] = molecular target: T2, human full-length Hsp90β (human, UniProt P08238 1-724); assay: SEC; analytical Superdex200 10/300 GL, room temperature, 0.3 mL/min; 85 µM protein in 50 mM HEPES pH 7.5, 50 mM KCl, 5 mM MgCl2, 1 mM DTT; fractions on SDS-PAGE
T2 construct: Hsp90β, human, full length, subcloned from T47D cell line cDNA into pET28a; Eluted as a dimer in size-exclusion chromatography; No step that removes the His6 tag is described; the tag is detected in the ELISA; also called hHsp90β-FL; His6-Hsp90

[3] = molecular target: T3, CK2-phosphorylated human full-length Hsp90β (human, UniProt P08238 1-724, phosphoserine at 255 (shown by Western blot); Ser226 named as a CK2 site, its phosphorylation could not be verified); assay: ITC; p50^Cdc37 (200 µM) titrated into Hsp90 (20 µM); 50 mM HEPES pH 7.5, 10 mM MgCl2, 30 °C
T3 construct: Hsp90β, human, full length, phosphorylated by CK2α; only pSer255 was checked; also called (p)Hsp90; h(p)Hsp90β-FL; source: E. coli BL21 Star (DE3), purified, then phosphorylated in vitro with purified CK2α and ATP
T3 sequence (P08238 whole entry): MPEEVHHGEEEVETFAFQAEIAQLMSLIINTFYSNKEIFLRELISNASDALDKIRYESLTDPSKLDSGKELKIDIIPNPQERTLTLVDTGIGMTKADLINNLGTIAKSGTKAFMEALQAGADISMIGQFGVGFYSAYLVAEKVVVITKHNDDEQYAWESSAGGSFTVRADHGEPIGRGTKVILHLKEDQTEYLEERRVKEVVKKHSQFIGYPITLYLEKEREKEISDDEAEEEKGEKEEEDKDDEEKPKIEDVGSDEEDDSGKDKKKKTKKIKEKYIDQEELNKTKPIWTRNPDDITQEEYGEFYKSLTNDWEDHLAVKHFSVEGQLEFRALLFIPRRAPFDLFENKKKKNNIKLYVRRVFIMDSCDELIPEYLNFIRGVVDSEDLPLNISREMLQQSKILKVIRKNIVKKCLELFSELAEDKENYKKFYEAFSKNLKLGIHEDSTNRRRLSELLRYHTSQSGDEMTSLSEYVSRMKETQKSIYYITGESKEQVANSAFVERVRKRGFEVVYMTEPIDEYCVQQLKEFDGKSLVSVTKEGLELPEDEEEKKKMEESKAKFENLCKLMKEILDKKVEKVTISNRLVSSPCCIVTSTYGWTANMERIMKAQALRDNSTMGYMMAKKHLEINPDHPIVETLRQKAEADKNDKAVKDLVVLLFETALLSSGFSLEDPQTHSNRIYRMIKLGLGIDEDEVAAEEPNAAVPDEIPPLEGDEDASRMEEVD

human full-length Hsp90β [4] = molecular target: T2, human full-length Hsp90β; assay: as above

| Kd [1] [µM] | Kd [3] [µM] | Kd (human full-length Hsp90β [4]) [µM] | Binder | other results |
| --- | --- | --- | --- | --- |
| 1.1 | – | – | B1 | – |
| 4.4 | – | – | B2 | – |
| – | – | – | B3 | binding result (GST-p50^Cdc37): binds |
| – | 1.7 | 1.2 | B4 | stoichiometry N (human full-length Hsp90β [2]): 1 |
| – | 8.6 | 5.1 | B5 | – |
